As usually defined, the stoichiometry N is a count of units in the complex or per binding partner.

The assay concerns the target bovine heart cytochrome c oxidase (bovine) (UniProt P00396). Kind of assay: crystal structure; co-crystallised by the batch-wise method at 277 K; 15 mM sodium phosphate pH 8.0, DM and FOM, Cyt.c/CcO molar ratio 1.2, ~5% PEG 4000; ferri-Cyt.c and oxidized CcO; crystals soaked with 50 uM Cyt.c; refined at 2.0 A.

For “bovine heart cytochrome c oxidase (from UniProt P00396 1-514; P68530 1-227; P00429 1-86) (complex)”, the stoichiometry N was 2.
